Experimental data: patent US20050042205A1

Target: rat luteal LH/CG receptor (LH/CG-R) expressed from the cloned cDNA (expression vector pCLHR) in transiently transfected human kidney 293 cells (rat) (UniProt P16235)

Question: With “human choriogonadotropin, highly purified (CR-123; 12,780 IU/mg) (from UniProt P01215) (ligand)” as the substance, how does the EC50 of cAMP production read?
Answer: Its EC50 of cAMP production is 40 to 80 pM.
